Patent publication US7888090B2, “Mutants of O6-alkylguanine-DNA alkyltransferase” (Ecole Polytechnique Federale de Lausanne, priority 2004, dated 2011)

How the values were obtained:
[1] = Stability after reaction with BG-FL; format: physicochemical; details: over 7 days
Procedure: Stability before reaction is determined for the mutant AGT or for a mutant AGT fusion protein by incubating purified samples in buffered aqueous solution for up to two weeks at 4° C. and up to six months at −20° C. At several time points, aliquots are taken and concentration of reactive AGT is estimated as described by Juillerat et al., Chem Biol 10:313-317, 2003. Stability for wild type AGT and the AGT mutant after reaction with a labelled substrate and after subsequent separation from unreacted substrate is determined by quantifying the concentration of the label in the soluble fraction over up to two weeks at 4° C. and up to three months at −20° C.
Stability after reaction: The vector pBAD/H is A (Invitrogen) is modified by cloning synthetic oligonucleotides (SEQ ID NO:29 and SEQ ID NO:30) between the NcoI and HindIII sites to include a 12×His-tag and SbfI and AscI cloning sites. The gene of AGTM is amplified with primers SEQ ID NO:31 and SEQ ID NO:32 and cloned between the SbfI/AscI sites into this vector. Wild type AGT and mutant AGT (Lys125Ala, Ala127Thr, Arg128Ala, Asn157Gly, Ser159Glu) are amplified with primers SEQ ID NO:31 and SEQ ID NO:33 and cloned into this vector. Protein expression is carried out in E. coli strain Top 10. An exponentially growing culture is induced with 0.2% arabinose, and the expression is carried out for 16 hours at 28° C. The cells are lysed by adding buffer to 10 ml/g containing 0.5 M NaCl, 80 mM imidazole, 1% Triton, 250 µM PMSF, 1 mM […]-mercaptoethanol, 5 mg/ml lysozyme, 20 µg/ml DNase and stirring for 45 min. […]
The AGT proteins at 10 µM) are quantitatively reacted with fluorescein-modified O^6-benzyl-guanine (substance 5 of Juillerat et al, Chem Biol 10:313-317, 2003, BG-FL, 20 µM) and purified over a size exclusion column (Econopac 10 DG, Bio-Rad) and incubated for 7 days. […] The fluorescence of the supernatant is measured with a Victor2 fluorescence plate reader (Perkin Elmer, excitation/emission at 485/535 nm).

[2] = Reaction of two AGT variants in one sample with CPTG and BG-Bt; format: biochemical
Procedure: FIG. 2: Western blot of the reaction of wild type hAGT (GST-hAGT fusion protein) and AGTM with the two substrates N^9-cyclopentyl-O^6-bromophenyl-guanine (CPTG) and biotinylated O^6-benzylguanine (BG-Bt, substance 3a of Juillerat et al. 2003) as described in Example 7. BG-Bt is present in all samples at 5 μM. Detection with neutravidin-peroxidase conjugate and luminescent peroxidase substrate detecting any AGT reacted with BG-Bt. Even under simultaneous incubation with identical concentrations of CPTG and BG-Bt only about 5% of GST-hAGT reacts with substrate BG-Bt.
Within the experiment two tags with different size for the two AGT proteins are used: The His-tagged AGTM (˜20 kDa) and GST-hAGT (cloned and prepared as described in Example 1, but starting with the wild type hAGT gene, ˜48 kDa) are diluted to 0.2 μM and 1.2 μM final concentration, respectively, in reaction buffer containing 50 mM HEPES, 1 mM DTT, 200 mg/mL BSA (pH 7.3). The sample is incubated with a mixture of substrates N^9-cyclopentyl-O^6-bromophenyl-guanine (CPTG; 0, 5 and 10 μM final concentrations) and biotinylated O^6-benzylguanine (BG-Bt, 5 μM final concentration) for 30 minutes. The reaction is quenched by addition of SDS-Laemmli buffer and subjected to Western blotting analysis (Example 1). As the two AGT variants have different masses, the two proteins can be separated on an acrylamide gel and analyzed independently. […] At the same concentration (both substrates at 5 μM final concentration), 95% of GST-hAGT reacts with CPTG, versus only 5% of His-tagged AGTM.

[3] = BG-Cy3 activity assay (reaction rate of AGT mutants); format: biochemical
Procedure: Reactivity against DNA-based substrates measured with a BG-Cy3 assay: BG-Cy3 is prepared by reacting the previously described O^6-(4-aminomethyl-benzyl)guanine (Keppler et al., NatureBiotechnol. 21:86-89, 2003) with the commercially available N-hydroxysuccinimide ester of Cy3, (Cy3-NHS, Amersham). The coupling reaction is performed at ambient temperature in N,N-dimethylformamide in the presence of 1 eq. of triethylamine. The BG-Cy3 conjugate is purified by reversed-phase HPLC on a C18-column by using linear gradients from 0.1% trifluoroacetic acid to acetonitrile. After solvent evaporation BG-Cy3 is dissolved in dimethyl sulfoxide and stored at −20° C. For measuring the reactivity with DNA-based substrates, a reaction mixture containing different concentrations (0 to 5 µM) of oligonucleotide SEQ ID NO:2 (modified in position 14), GST-AGT fusion protein at 0.2 µM and BG-Cy3 at […] in reaction buffer (50 mM HEPES, pH 7.2, 1 mM DTT, 200 mg/ml BSA) is incubated in microtiterplates. Fluorescence of the Cy3 derivative (excitation 519 nm, emission at 572 nm) is measured on a Spectramax Gemini plate reader (Molecular Devices).
The amplified products are cloned in fusion to the g3 gene of filamentous phage in the vector pAK100 via SfiI restriction sites. The resulting gene libraries are used for phage display as described under Example 4. The mutants of the libraries are selected with 5 to 50 nM of BG-Bt for 10 min. Selected mutants are subcloned into pGEX using the primers SEQ ID NO:3 and SEQ ID NO:13. The reaction rate of mutant AGTs is determined as described in Example 6, Reactivity against DNA-based substrates (BG-Cy3 assay).
For the activity assay purified GST fusion proteins were used for mutants marked with “p.” (prepared as described under Example 1); periplasmic extracts were used for mutants marked with “x.” (prepared as described under Example 2).

B1: Wild type hAGT: wild type human O^6-alkylguanine-DNA alkyltransferase (SEQ ID NO:1); GST-hAGT is its GST fusion (protein, listed as Homo sapiens)
chain: MDKDCEMKRTTLDSPLGKLELSGCEQGLHEIKLLGKGTSAADAVEVPAPAAVLGGPEPLMQCTAWLNAYFHQPEAIEEFPVPALHHPVFQQESFTRQVLWKLLKVVKFGEVISYQQLAALAGNPKAARAVGGAMRGNPVPILIPCHRVVCSSGAVGNYSGGLAVKEWLLAHEGHRLGKPGLGGSSGLAGAWLKGAGATSGSPPAGRN
- loss of soluble fluorescent protein [1]: about 60%
- fraction of protein reacting with CPTG ([2]; CPTG and BG-Bt both at 5 μM, 30 minutes): 95%
- fraction of protein reacting with BG-Bt ([2]; simultaneous incubation with identical concentrations of CPTG and BG-Bt): about 5%
- kobs ([3]; BG-Cy3 activity assay): 116 M⁻¹ s⁻¹
- Relative reaction rate ([3]; divided by value for wild type hAGT, purified GST fusion proteins (p.)): 1
